Test results: PMC7078158, “Enzymes Catalyzing Crotonyl-CoA Conversion to Acetoacetyl-CoA During the Autotrophic CO2 Fixation in Metallosphaera sedula” (Frontiers in Microbiology, 2020)

Experiments:
Format in all cases: biochemical, Metallosphaera sedula
[1] = substrate: C/C=C/C(=O)SCCNC(=O)CCNC(=O)[C@H](O)C(C)(C)COP(=O)(O)OP(=O)(O)OC[C@H]1O[C@@H](n2cnc3c(N)ncnc32)[C@H](O)[C@@H]1OP(=O)(O)O; assay: UHPLC, 3-hydroxybutyryl-CoA formation; details: hydratase reaction, 100 mM Tris-HCl pH 7.8, 65 °C, apparent Km
Excerpt: UHPLC, 3-hydroxybutyryl-CoA formation on crotonyl-CoA hydratase Msed_0384

[2] = substrate: C=C(C)C(=O)SCCNC(=O)CCNC(=O)[C@H](O)C(C)(C)COP(=O)(O)OP(=O)(O)OC[C@H]1O[C@@H](n2cnc3c(N)ncnc32)[C@H](O)[C@@H]1OP(=O)(O)O; assay: UHPLC, 3-hydroxy-2-methylpropionyl-CoA formation; details: hydratase reaction, 100 mM Tris-HCl pH 7.8, 65 °C, apparent Km
Excerpt: UHPLC, 3-hydroxy-2-methylpropionyl-CoA formation on crotonyl-CoA hydratase Msed_0384

[3] = substrate: CCCCC/C=C/C(=O)SCCNC(=O)CCNC(=O)[C@H](O)C(C)(C)COP(=O)(O)OP(=O)(O)OC[C@H]1O[C@@H](n2cnc3c(N)ncnc32)[C@H](O)[C@@H]1OP(=O)(O)O; assay: UHPLC, 3-hydroxyoctanoyl-CoA formation; details: hydratase reaction, 100 mM Tris-HCl pH 7.8, 65 °C, apparent Km
Excerpt: UHPLC, 3-hydroxyoctanoyl-CoA formation on crotonyl-CoA hydratase Msed_0384

[4] = substrate: C=CC(=O)SCCNC(=O)CCNC(=O)[C@H](O)C(C)(C)COP(=O)(O)OP(=O)(O)OC[C@H]1O[C@@H](n2cnc3c(N)ncnc32)[C@H](O)[C@@H]1OP(=O)(O)O; assay: UHPLC, 3-hydroxypropionyl-CoA formation; details: hydratase reaction, 100 mM Tris-HCl pH 7.8, 65 °C, apparent Km
Excerpt: UHPLC, 3-hydroxypropionyl-CoA formation on crotonyl-CoA hydratase Msed_0384

[5] = substrate: C[C@H](O)CC(=O)SCCNC(=O)CCNC(=O)[C@H](O)C(C)(C)COP(=O)(O)OP(=O)(O)OC[C@H]1O[C@@H](n2cnc3c(N)ncnc32)[C@H](O)[C@@H]1OP(=O)(O)O; assay: Ccr-coupled dehydratase assay, UHPLC; details: dehydratase reaction, 100 mM Tris-HCl pH 7.8, 42 °C, 1 mM NADPH and NaHCO3 for coupling enzyme, apparent Km
Excerpt: Ccr-coupled dehydratase assay, UHPLC on crotonyl-CoA hydratase Msed_0384

B1: crotonyl-CoA hydratase Msed_0384 (Metallosphaera sedula DSM 5348) (protein)
chain: MRTVIVEKGDVGIIRLNRPEKLNAINMEMVYDLVEALNELKSQVRAVIITGNGKAFSAGADVKEMLDMSIEQVTREGHMPLWDALRGFRKPVIAALNGVAAGGGLELAMACDMIVAGESARLGQPEINLGIIPGAGGTQRLTRTVGKYRAMEMVLTGRLITAWDAYRMGLVTKVVPDEALIPEAMRLAREITGKSGFAVELGKEAVNRALDTLLQQGLDLERRNFYVTLVSQDGREGMKAFLEKRKPEWKT
notes: full-length, N-terminal His10-tag (pET16b), recombinant in E. coli Rosetta 2 (DE3)
For B1, the Km [1] was 220 ± 20 µM, the Km [2] was 70 ± 30 µM and the Km [3] was 500 ± 60 µM. It also gave a Km [4] of 180 ± 30 µM and a Km [5] of 50 ± 10 µM.
